experiment: soluble on expression in E. coli; label from the status in PepcDB or PDB records

Soluble on expression in E. coli, not soluble:
MGSDKIHHHHHHMPEIHQSIAQHYHERTKYDPETIASKSQRLDWAKQPVPFKEYKIGSAIDLKPYLQETPEVFVNDTNGQWWQRLSRLLFRSYGLTARMPSMGNTVYLRAAPSAGGLYPAEVYVVSRGTPLLSPGLYNYQCRTHSLIHYWESDVWQSLQEACFWHPALESTQLAIIVTAVFYRSAWRYEDRAYRRICLDTGHLLGNIELSAAITDYRPHLIGGFIDEAVNDLLYIDPLQEGAIAVLPLADLLDIQQNISPGCTALPSATETNYPQVPDGELLKYFHHHTQISASITGKLNLPTVIQEKSLEDKYNFPFCLKISTVSAPIYWGENLSDLEITMHKRRSTRAYNGEELTFDELKALLDFTYQPQNYIDQSLDNSPDYFDLNLIETFIAVCGVQGLEAGCYYYAPKAQELRQIRFKNFRRELHFLCLGQELGRDAAAVIFHTSDLKSAIAQYGDRVYRYLHMDAGHLGQRLNLAAIQLNLGVSGIGGFFDDQVNEVLGIPNDEAVIYITTLGRPR, MGSDKIHHHHHHMPERVLNFRALFLHGLYKMDKPKAYCRLFLPSFLLLSACTVDISQPDPSATAVDAEAKTWAVKFQHQSSFTEQSIKEITAPDLKPGDLLFSSSLGVTSFGIRVFSTSSVSHVAIFLGDNNVAEATGAGVQIVSLKKAMKHSDKLFVLRVPDLTPQQATDITAFANKIKDSGYNYRGIVEFIPFMVTRQMCSLNPFSEDFRQQCVSGLAKAQLSSVGEGDKKSWFCSEFVTDAFAKAGHPLTLAQSGWISPADLMHMRIGDVSAFKPETQLQYVGHLKPGIYIKAGRFVGLTR, MGSDKIHHHHHHMPETIKNISKKDAILKAALQLFSHRSFDGTTIPEIARVANVGAGTIYRYFISKEDLVNELFVRVLDDFTEHLQVGLHGQMDTRTRFHHLFNNAWNYVMNNVEAFLFINLNDEATYLNDRSRKSFSRMWDYIAEMVEQGADKGELIKLDPKFVASLVYGPLIPISKRFNNDNRQASQALAKALEEATWRAISTD, MGSDKIHHHHHHMPIAIYQGHHHSLAPADINIVIDVIRAFTVAHYAFIGGAKEILLVRTADEAFALKDTYPDYVLTGEEKGVGISGFDLDNSPKRMAGQNMTDKSLIQKTTNGVTAALGALNAKHLFVTGFSNAKTTAQHVKKLVANDCVINIVASHPSGDDDMACAEYIKGIIEGTNVVTAAEAIERIKGSSVAEKFFDCRQPLFDSEDIVYCTKELTGDFVMKVKQDGEVPTIERVII, MGSDKIHHHHHHMPKMGELTLTSVDEFDFRLLIKALGKGEKGSRALTFDEACLLLEGFAKGKATRAQMASAMMLMRVRGETTEEISGMVAGLRRTVDKDWHSLEVDIDWPVYAGKREQLPWLLLVAKLLAKQGVRVMLHGDSQALPHRRHVESCLASLNIACCTTPQMAKAALHSDNIVYVCAGDLAPVLDECRQLHQELGLRSLIQTAARCMNPTNAPISLRSYFHPGLDTVHQGICEILFEKSEYHAGSVAIFKGLQGETECNPRVATTITVVNGQTDNIAVSSLSIPTLLEGFSGAKVGQAELSSDILALLWREQEPFSADALTTLMSRTMIEQALSSMTATLAAVLLLLSRKSAMTEPNTTAIITTEQAVNLSQQCWTNRFNSTDCPLKQWRNRELLCAV, MGSDKIHHHHHHMPLPENSVVEKNILNPEAVAEALERAMNLANPQTTHAAIAVPTSTVIHKTIEMDADMSDDEREVQIRVDAEQYIPFPLDEVSLDFEVLPDRLANPNRVNVLLVATRTENVETRVEVLELADLNPKLADVESYAVERAFSVFADSLPMGANTIGILDIGHTMTTLSVMQNGKIIYTREQVFGGKQLTLEIQSRYGLSLEEASRAKKDRSLPDDYEIEVLDPFLDAVVQQAARSLQFFFSSSQFNEIDHILLAGGNANIPGLAKLLQQKLGYRVTIANPFLQMGFSPQVDVQKIENDASSLMVACGLALRSFD, MGSDKIHHHHHHMPNQAWSYQMLHLDLAWLNQLYSEFQEQGLDLHIPQHKPLIIKDEFLYDAFTEMNETLFDAQKLIFEKEQSLLHCLIHLLLPHFILEEIQKPQYLYKDFLNLIDVISSSEGFISLEELAQRVGLSRYAIIRLFKANVGLTPHAFQINLKINQAREQLKKGVPLAELAVNLGFSDQSHFHKAFKAHTGVTPRQFQLAAAQ, MGSDKIHHHHHHMPSIFEKYHLKQVINTSGRMTALGVSTPRPEVVEAAMAGMNQYFEMKDLVNKTGEYIAKLLDVEGATVVSCASAGIAQSVAAVLVKDSDWLLENLHVTPIENNEIVLPKGHNVNFGAPVGTMVALGGGKLVEAGYANECSAQQLAAAITPRTAAILYIKSHHCVQKSMLNVAQAAEVARQHNVPLIVDAAAEEDLQCYYRMGADLVIYSGAKAIEGPTSGLVIGKTQYVEWVKRQSMGIGRAMKVGKEGILGLTCAIEHYLTASKESGQQMVAKMTPFIEQLNTLNGVTARVVWDSAGRDIARAEIKFDEATTGVKTGDLVNALKQGEYAIYFRGYKANEGIIEADVRSVNAQQLEVVARRIAEVLNKEKQA, MGSDKIHHHHHHMPSSTTLQHAIENITIWRKGEQRAPHKPLLLLYVLSQYQRGHARMFDYASEIRDELHSLLERFGPQRRQYRPDMPFWRLKGDGFWELHNSDQCSTQGSRQPPGKELELCHVAGGFDEPHFALLNRNKRLINTLAHQILEAHFPESIQEELAEEMGFDLQQIRKERDPHFRQQVLRAYNYECAICGFNMRHDNTSVALEAAHIKWKQHGGPCEIPNGLALCAIHHKAFDKGSIGLDEDMRIQVSPAVNGGGIVGRLFWDFDGKPITLPQGKECYPQEGFVAWHRREVFRG, MGSDKIHHHHHHMPTRVIEDKGDMTPSFGIDDRIFLGEGLFETIRVNSSKPSFAYMHWERLGNSARQLGIPFEISFDDWFEHLIQKIQKDNLYHGGIKAILSGGPASRGLAERGQVSQLIFQTFNYSIQKHPVRLISINWLRDKANPLYQLKSVNYLEAIIAQRQAIAVGADDALFFNTENHVTETTCANLFLIENNILYTPRVEDGILPGITRARLISHCQQHKMSVQEISLTKKRIEDADAVFLTNSLQGIRRVLSLDNIIFEVNHPIIDKLIFLLNQDES, MGSDKIHHHHHHMPVDWPLRFPQLSGGASRPHSSLASTCVGGLQELMQSCYPPRGGCWIAAVLEDAGVERVCGLLGKGHAGVVLLVEWRGVAAALKVRRRDSRRGSLEPEARVAEKAALAGAAPEVYGYGEEFIAMAPALGPSLQDLAEEGLLTPQHILASIEAAWALDNAGILHGELHRPWRNVLFNPRKALIIDYDSASSGCGNVVKLVSGISRRVPSLLGLVRSERFRDLAKRYYREGCGKATYMEMLDEVKKHISVI, MGSDKIHHHHHHMPVLPVSSYKGSGPLANGHVQTMFPVLFRPMPVVEYHRQRLETPDGDFLDVDFSSAAAAAQSESIAVISHGLEGHSRRRYVQGMARVLNARGWDAAAWNFRGCSGQPNRLPRMYHSGDTQDLHTVVTACAQKGYRRILLVGVSMGGNQILKYLGEDPDRVDSRVCGAVVFSVPCDLVGAAQVLGRPQNSVYMRYFLRTLRQKIKAKHAMYPDTIQMDGLDSIRTFAEFDDRYTAPLHGFSGALDYWTKSSCRQFLSSVRVPALLVNALNDPFLSASCYPYREARQSGSLFFETTVTGGHVGFVQFNRQNIYWSEERLLSFMDEQGL, MGSDKIHHHHHHMQFGAKPLFENISVKFGGGNRYGLIGANGCGKSTFMKILTGDLEPSSGNVSLDVNERMGKLNQDQFAYEKFSVVDTVIMGHRELWKVKQERDRIYSLPEMTEEDGIKVSELEMEFAEMDGYTAESRAGDLLLGVGIGTEQHFGLMSQIAPGFKLRVLLAQALFSDPDLLLLDEPTNNLDIDTIRWLQDMLNQRNSTMVIISHDRYFLNSVCTHMADLDYGELRVYPGNYDEYMMAATQARERLQSDNAKKKAQIAELQTFVARFSANASKAKQATSRAKQIDKIKLDDIKASSRVNPFIRFEQEKKLFRNALIVENLAKGYDKPLFSNLNLMVEVGERIAILGENGVGKTTLMRTLVHDIPQDEGTIQWSENANIGYYAQDHEADFANDMTLFDWMSQWRKPEDDDQSVRAILGRMLFGSDDIKKSVTVLSGGEKGRMYFGKLIMQKANILMLDEPTNHMDMESIESLNNALEMYEGTLMFVSHDRAFVSSLATRILEVTANGVNDFKGTYDEFLRSKGIDA, MGSDKIHHHHHHMQFTINHRTHYLYTDVVNYTIQKLRLTPQDGFGQRVKRWEIRVNGHLQRHDDAYGNAEHLLVLDTPHEEINILATGEVETGLDTPPAHDLLPREIYLRTTALTATDATLRNFAEQFRYDRFTGQILDEMMHAIVDKVPYYRGVTNVNTPAAEAFRSGHGVCQDHAHIFIACCRYLGIPARYVSGYLFTDDGSLMESHAWADACLPSGWISFDVSNRCRTNGVHVRLATGLDYSDACPVSGMRVGGGLETMTVGVHVSQLQSQQ, MGSDKIHHHHHHMQGLGLIVCRQGSFQFSLDNKCASAKAGETLFIHEESWVQVLQETEDVEILILAYQIEPIRDIIGNSVVSMYMYSKLTPELSCVWNTGEEDEIMKYMSLIDSVLEMEESVFSLYEQKLLLLALTYRICSVYNRKLISAGQETGGRKNEIFVRLIQLIEQYYMQERSVEFYADKLCLSPKYLSALSKSICGYTVQELVFKAIIRKCISLLKNTQKNIQEISNEFGFPNASYFGTFFKKQMGMSPQQYRRNL, MGSDKIHHHHHHMQHIIKTALQQTFNYKTNKSIYNILVGKKSHQTFFDACSQQQLSLYHSLPLLKYPSFELFLEKINEFNAEMEIMLHPRYTFESMGQTFQAIQLLVQTMSNTKQHVFHFVPISQNNKIQETVKIVYNYIKENQLQIDFENELHNLFKAITLKGPCYLHYYLQGYDEPMYTRQQVSLIEKLSQQQLFEYEMNNLVTMMFELESGEYTILSKIIMKPTLLNQTYITYTKLLEQFTMEDIAAQQQVKINTIEDHVLEILIKGYMSNYDDYVELEDQLQFLNFYQQHRGERLKFYKEQFDTLSYFQLKVLIVGFERGDLNVA, MGSDKIHHHHHHMQIEFYRRKYGRGCRPHLSLCIEGQHYHVDTSPADYGMNLITHAHTDHYGQRNMDNSRAVASRESAAILEACTGKVFSGVTFEVGSRIRLSDTKIKTYPTYHMHGSAAFYFQDSDILITGDVKDYSKLPKCKILVTEATYGHPSHIFEEEVEKLLKVASSNKAVFGAYPIGKAQRVAEILSKDGFGFSAEEKIARICSAVGLKPSDGPLIASPRNLPLYGGGYILTAHKFYRWPRITLSDHLDYRGILEMIDHCEPEEVLFYHGKPSKRLLEHLKNEGIVCRTLNDLPVMK, MGSDKIHHHHHHMQKLASGEQLMKVNGDTVATQGQLAKLLPLQHIDPQSTDIIDHGAKPRRQLLDWLMFHVEPEFYFAWQYYSRALKQRNTLLKTRRNLSLADLEPWNKMLSDYGEILHSQRLSIVEQWNVYFQNDLSQLLPDLEIELEYSPGFHTEQGLMQDLLNQHQKDIERRYTEYGPHRADLRLKTPFGHADDVLSRGQKKLLIIALKLSQIAMLHASNKETVVLLDDLTAELDLTAQQRLIERLSQLGSQVFMTTLDHASVKKHLHDLSISYQLFSVESGQVSLAAS, MGSDKIHHHHHHMQLKQSIYFHSPIFLQNILTTIYGRVLYQERYGPVYQKRLQELKEKERFQTNAQAEQLARLNQFLLFCQTYSPYYQELFEQHRITLPLETLDELKQIPILSKEILRTRNADVHAKIRAPILGKTGGTTGKSIQVHYTKEDMQIRMAHLDYFKWTHGIERGMRRASFTGQTLAAESQKAPVYWRMNKAINQMLFTIKNINPQTAALYIEQLNRFNPESIDGLPSGMIEVARHAKKYNIPCTFRPKAIFPTAEMMTAAERQLIEEVFHAPIFDQYASSEGAPIVAECRYGKKHLHYEMGIIEVEEDGQILVTSFDTHGTPLVRYRVGDRMTLSEATCQCGHAGPVIASIDGRGRSFIQLKDGHRIFEGELAGIVRAFPNCIERVQYIQSDKEEIVMLYVPDERCFKEEHEKELYFVLKRLFGGQMEVLLRAVPEIPKEISGKTLLIKQLLLEKS

From the DeepSol protein solubility set
